According to US20180251562A1 (XOMA US, published 2018):

Key:
[1] = target: T1, rat insulin receptor (INSR) on CHOK1 cells (rat, UniProt P15127 27-1383); test: cell-based or functional assay
[2] = target: T2, cynomolgus insulin receptor (INSR) on CHOK1 cells (cyno, UniProt A0A7N9D6H3 48-1390); test: cell-based or functional assay
[3] = target: T3, minipig insulin receptor (INSR) on CHOK1 cells (minipig, UniProt F1SCL0 28-758; F1SCL0 763-1382); test: cell-based or functional assay
[4] = target: T4, human insulin receptor (INSR) on CHOK1 cells (human, UniProt P06213 28-1382); test: cell-based or functional assay
[5] = target: T5, solubilized human INSR (B isoform) from CHO-hINSR-B cells, without insulin (human, UniProt P06213 28-1382); test: SPR (ProteOn XPR36), solubilized INSR-B captured by CT-3 mAb, Fab injected, -insulin
T5 construct: mature; Detergent-solubilized full-length receptor in cell lysate, captured on the SPR chip by its carboxy-terminal part; also called solubilized INSR

[6] = target: T1, rat insulin receptor (INSR) on CHOK1 …; test: flow cytometry on CHOK1 cells expressing the INSR ortholog; Fab, anti-human kappa FITC detection
[7] = target: T2, cynomolgus insulin receptor (INSR) on …; test: as above
[8] = target: T3, minipig insulin receptor (INSR) on …; test: as above
[9] = target: T4, human insulin receptor (INSR) on CHOK1 …; test: as above
[10] = target: T6, Recombinant human insulin receptor (B form) ECD (R&D Systems) (human, UniProt P06213 28-956, limits assumed); test: SPR (Biacore 2000), INSR-ECD immobilised; relative to 247.2.018 Fab
T6 construct: extracellular domain; also called INSR-ECD; h-INSR

[11] = target: T6, Recombinant human insulin receptor (B …); test: SPR (Biacore 2000), INSR-ECD immobilised, purified Fab injected, 1:1 fit
[12] = target: T6, Recombinant human insulin receptor (B …); test: SPR (Biacore 2000), INSR-ECD immobilised, purified Fab injected, 1:1 fit [cont'd]
[13] = target: T1, rat insulin receptor (INSR) on CHOK1 …; test: binding to CHO cells expressing rat INSR; 1st column headed CHO Rat INSR; quantity and unit not printed [cont'd]
[14] = target: T2, cynomolgus insulin receptor (INSR) on …; test: binding to CHO cells expressing cyno INSR; 1st column headed CHO Cyno INSR; quantity and unit not printed [cont'd]
[15] = target: T4, human insulin receptor (INSR) on CHOK1 …; test: binding to CHO cells expressing human INSR; 1st column headed CHO Human INSR; quantity and unit not printed [cont'd]
[16] = target: T4, human insulin receptor (INSR) on CHOK1 …; test: binding to CHO cells expressing human INSR; 2nd column headed CHO Human INSR; quantity and unit not printed [cont'd]
[17] = target: T2, cynomolgus insulin receptor (INSR) on …; test: binding to CHO cells expressing cyno INSR; 2nd column headed CHO Cyno INSR (same numbers as the 1st); quantity and unit not printed [cont'd]
[18] = target: T1, rat insulin receptor (INSR) on CHOK1 …; test: binding to CHO cells expressing rat INSR; 2nd column headed CHO Rat INSR (the 1st column's numbers with more digits); quantity and unit not printed [cont'd]

Binder | Fold KD Improvement [10] [fold] | Kd [11] [nM] | koff [12] [s⁻¹] | kon [12] [M⁻¹ s⁻¹] | CHO Human INSR [15] | further results
XPA.15.247 Fab (Fab, V domains shown, Monomeric Fab; also called Fab247; XPA.15.247 parent Fab) VH: EVQLVETGGGVVQPGRSLRLSCAASGFTFSSYAMHWVRQAPGKGLEWVAVISYDGSNKYYADSVKGRFTISRDNSKNTLYLQMNSLRAEDTAVYYCARHEWGFGMDVWGQGTTVTVSS VL: DVVMTQSPLSLSVTLGQPASISCRSSLSLVYGDENTYLNWFQQRPGQSPRRLLYKVSDRDSGVPDRFSGSGSGTDFTLKISRVEADDVGVYYCMQGTHWPYTFGQGTKLEIKR | – | – | – | – | – | EC50 (nM), pAKT signaling assay [1]: 46.6 nM; EC50 (nM), pAKT signaling assay [2]: 82.4 nM; EC50 (nM), pAKT signaling assay [3]: 20.7 nM; EC50 (nM), pAKT signaling assay [4]: 44 nM; Kd [5]: 56 nM; koff [5]: 0.00211 s⁻¹; kon [5]: 37400 M⁻¹ s⁻¹; EC50 [6]: 11.8 nM; EC50 [7]: 93 nM; EC50 [8]: 39.8 nM; EC50 [9]: 34.8 nM
XPA.15.247.2.011 Fab (Fab, V domains shown, Fab; also called XPA.15.247.011) VH: EVQLVETGGGVVQPGRSLRLSCAASGFTFSSYAMHWVRQAPGKGLEWVAVISYSGSNKYYADSVKGRFTISRDNSKNTLYLQMNSLRAEDTAVYYCARHEWGFGFDYWGQGTTVTVSS VL: DVVMTQSPLSLPVTLGQPASISCRSSHSLVYGDGNTYLNWFHQRPGQSPRRLIYKVSNRDSGVPDRFAGSGSGTDFTLKISRVEADDFGVFYCMQGTHWPYTFGQGTKLEIKR | – | – | – | – | – | EC50 (nM), pAKT signaling assay [1]: 7.8 nM; EC50 (nM), pAKT signaling assay [2]: 6.2 nM; EC50 (nM), pAKT signaling assay [3]: 4.4 nM; EC50 (nM), pAKT signaling assay [4]: 5 nM; Kd [5]: 10 nM; koff [5]: 0.000705 s⁻¹; kon [5]: 70400 M⁻¹ s⁻¹; EC50 [6]: 1.9 nM; EC50 [7]: 17.2 nM; EC50 [8]: 5.8 nM; EC50 [9]: 2.7 nM
RHF.15.05896.020 (Fab, V domains shown, Untagged Fab) VH: EVQLVETGGGVVQPGRSLRLSCAASGFKFSSYAMHWVRQAPGKGLEWVAVISWSGSNKYYADSVKGRFTISRDNSKNTLYLQMNSLRAEDTAVYYCARHEWGFGFDEWGQGTTVTVSS VL: DVVMTQSPLSLPVTLGQPASISCRSSQSLVYGDGNTYLNWFQQRPGQSPRRLIYKVSNRDSGVPDRFSGSGSGTEFTLKISRVEAEDVGVYFCMQGTYWPGTFGGGTKLEIKR | 6.4 | 1.5 | 0.00017 | 110000 | 1.96 | CHO Rat INSR [13]: 0.661; CHO Cyno INSR [14]: 0.911; CHO Human INSR [16]: 0.838; CHO Cyno INSR [17]: 0.911; CHO Rat INSR [18]: 0.66
RHF.15.05896.032 (Fab, V domains shown, Untagged Fab) VH: EVQLVETGGGVVQPGRSLRLSCAASGFKFSSYAMHWVRQAPGKGLEWVAVISYSGENKYYADSVKGRFTISRDNSKNTLYLQMNSLRAEDTAVYYCARHEWGFGFDEWGQGTTVTVSS VL: DVVMTQSPLSLPVTLGQPASISCRSSQSLVYGDGNTYLNWFQQRPGQSPRRLIYKVSNRDSGVPDRFSGSGSGTEFTLKISRVEAEDVGVYFCMQGTYWPGTFGGGTKLEIKR | 8.6 | 1.1 | 0.0001 | 91000 | 3.1 | –
RHF.15.05896.056 (Fab, V domains shown, Untagged Fab) VH: EVQLVETGGGVVQPGRSLRLSCAASGFKFSSYAMHWVRQAPGKGLEWVAVISYGGSNKYYADSVKGRFTISRDNSKNTLYLQMNSLRAEDTAVYYCARHEWGFGFDEWGQGTTVTVSS VL: DVVMTQSPLSLPVTLGQPASISCRSSQSLVYGDGNTYLNWFQQRPGQSPRRLIYKVSNRDSGVPDRFSGSGSGTEFTLKISRVEAEDVGVYFCMQGTYWPGTFGGGTKLEIKR | 6.9 | 1.4 | 0.00017 | 120000 | 2.26 | –
RHF.15.05896.036 (Fab, V domains shown, Untagged Fab) VH: EVQLVETGGGVVQPGRSLRLSCAASGFKFSSYAMHWVRQAPGKGLEWVAVISYSGGNKYYADSVKGRFTISRDNSKNTLYLQMNSLRAEDTAVYYCARHEWGFGFDLWGQGTTVTVSS VL: DVVMTQSPLSLPVTLGQPASISCRSSQSLVYGDGNTYLNWFQQRPGQSPRRLIYKVSNRDSGVPDRFSGSGSGTEFTLKISRVEAEDVGVYFCMQGTYWPGTFGGGTKLEIKR | 5.4 | 1.8 | 0.00022 | 120000 | 3.04 | –
RHF.15.05896.044 (Fab, V domains shown, Untagged Fab) VH: EVQLVETGGGVVQPGRSLRLSCAASGFKFSSYAMHWVRQAPGKGLEWVAVISNSGSNKYYADSVKGRFTISRDNSKNTLYLQMNSLRAEDTAVYYCARHEWGFGFDKWGQGTTVTVSS VL: DVVMTQSPLSLPVTLGQPASISCRSSQSLVYGDGNTYLNWFQQRPGQSPRRLIYKVSNRDSGVPDRFSGSGSGTEFTLKISRVEAEDVGVYFCMQGTYWPGTFGGGTKLEIKR | 7.4 | 1.3 | 0.00017 | 130000 | 2.52 | –
RHF.15.05896.015 (Fab, V domains shown, Untagged Fab) VH: EVQLVETGGGVVQPGRSLRLSCAASGFKFSSYAMHWVRQAPGKGLEWVAVISYSGRNKYYADSVKGRFTISRDNSKNTLYLQMNSLRAEDTAVYYCARHEWGFGQDYWGQGTTVTVSS VL: DVVMTQSPLSLPVTLGQPASISCRSSQSLVYGDGNTYLNWFQQRPGQSPRRLIYKVSNRDSGVPDRFSGSGSGTEFTLKISRVEAEDVGVYFCMQGTYWPGTFGGGTKLEIKR | 3.3 | 3 | 0.00025 | 84000 | 4.35 | –
RHF.15.05896.006 (Fab, V domains shown, Untagged Fab) VH: EVQLVETGGGVVQPGRSLRLSCAASGFKFSSYAMHWVRQAPGKGLEWVAVISYSGDNKYYADSVKGRFTISRDNSKNTLYLQMNSLRAEDTAVYYCARHEWGFGFDRWGQGTTVTVSS VL: DVVMTQSPLSLPVTLGQPASISCRSSQSLVYGDGNTYLNWFQQRPGQSPRRLIYKVSNRDSGVPDRFSGSGSGTEFTLKISRVEAEDVGVYFCMQGTYWPGTFGGGTKLEIKR | 5.2 | 1.9 | 0.00024 | 130000 | 2.95 | –
RHF.15.05896.068 (Fab, V domains shown, Untagged Fab) VH: EVQLVETGGGVVQPGRSLRLSCAASGFKFSSYAMHWVRQAPGKGLEWVAVISYSGGNKYYADSVKGRFTISRDNSKNTLYLQMNSLRAEDTAVYYCARHEWGFGYDYWGQGTTVTVSS VL: DVVMTQSPLSLPVTLGQPASISCRSSQSLVYGDGNTYLNWFQQRPGQSPRRLIYKVSNRDSGVPDRFSGSGSGTEFTLKISRVEAEDVGVYFCMQGTYWPGTFGGGTKLEIKR | 8.3 | 1.2 | 0.00038 | 320000 | 1.25 | CHO Rat INSR [13]: 0.533; CHO Cyno INSR [14]: 0.854; CHO Human INSR [16]: 0.762; CHO Cyno INSR [17]: 0.854; CHO Rat INSR [18]: 0.533
